{
  "source": "paper PMC2646846",
  "assay_in_all_cases": "FRET or BRET",
  "key": {"[1]": {"target": "calpain-2 Cys105Ala-CCPGCC-H6 (rat) labelled with LumioGreen, with the truncated small subunit (rat) (UniProt Q07009)"}, "[2]": {"target": "labeled calpastatin fragments (competition by non-fluorigenic calpains)"}, "[3]": {"target": "calpain-2 Cys105Ala-eGFP-H6 (rat) with the truncated small subunit (rat) (UniProt Q07009)"}},
  "data": [
    {"substance": "cL-ABC-D1 Cys241Ser Ser142Cys labelled with TMR (from UniProt P20810 114-270) (domain or fragment)", "values": [
      {"measurement": "increase in EmAcc/EmDon on addition of calcium", "setting": "[1]", "value": 330, "unit": "%"}
    ]},
    {"substance": "calpain-2 Cys105Ala (rat), non-fluorigenic, with the truncated small subunit (from UniProt Q07009 20-700) (complex)", "values": [
      {"measurement": "inhibition of FRET at ~0.35 μM competitor", "setting": "[2]", "value": 50, "unit": "%"}
    ]},
    {"substance": "cL-ABC-D1 Cys241Ser Ser148Cys labelled with AlexaFluor546 (from UniProt P20810 114-270) (domain or fragment)", "values": [
      {"measurement": "increase in EmAcc/EmDon on addition of calcium", "setting": "[3]", "value": 99.9, "unit": "%"},
      {"measurement": "maximal calcium-dependent increase in EmAcc/EmDon (average)", "setting": "[3]", "value": 0.45},
      {"measurement": "increase in EmAcc/EmDon on addition of calcium", "setting": "[1]", "value": 330, "unit": "%"}
    ]},
    {"substance": "cL-AtB-D1 Ser148Cys labelled with AlexaFluor546 (from UniProt P20810 114-202) (domain or fragment)", "values": [
      {"measurement": "increase in EmAcc/EmDon on addition of calcium", "setting": "[3]", "value": 66.7, "unit": "%"},
      {"measurement": "maximal calcium-dependent increase in EmAcc/EmDon (average)", "setting": "[3]", "value": 0.169}
    ]},
    {"substance": "cL-ABC-D1 Cys241Ser Ser223Cys labelled with AlexaFluor546 (from UniProt P20810 114-270) (domain or fragment)", "values": [
      {"measurement": "FRET efficiency", "setting": "[3]", "value": 13.2, "unit": "%"},
      {"measurement": "increase in EmAcc/EmDon on addition of calcium", "setting": "[3]", "value": 34.1, "unit": "%"}
    ]},
    {"substance": "cL-ABC-D1 Cys241Ser Ser142Cys labelled with AlexaFluor546 (from UniProt P20810 114-270) (domain or fragment)", "values": [
      {"measurement": "increase in EmAcc/EmDon on addition of calcium", "setting": "[3]", "value": 99.9, "unit": "%"},
      {"measurement": "increase in EmAcc/EmDon on addition of calcium", "setting": "[1]", "value": 330, "unit": "%"}
    ]},
    {"substance": "cL-ABC-D1-Cys241Ser-Ala246Cys Alexafluor546 (from UniProt P20810 114-270) (domain or fragment)", "values": [
      {"measurement": "FRET efficiency", "setting": "[3]", "value": 33.5, "unit": "%"},
      {"measurement": "absolute increase in EmAcc/EmDon on addition of calcium (2.5 mM)", "setting": "[3]", "value": 0.456},
      {"measurement": "increase in EmAcc/EmDon on addition of calcium", "setting": "[3]", "value": 99.9, "unit": "%"},
      {"measurement": "increase in EmAcc/EmDon on addition of calcium (2.5 mM), single assay", "setting": "[3]", "value": 70, "unit": "%"},
      {"measurement": "maximal calcium-dependent increase in EmAcc/EmDon (average)", "setting": "[3]", "value": 0.45}
    ]},
    {"substance": "cL-AtB-D1-Ser151Cys-Alexafluor546 (from UniProt P20810 114-202) (domain or fragment)", "values": [
      {"measurement": "FRET efficiency", "setting": "[3]", "value": 25.3, "unit": "%"},
      {"measurement": "absolute increase in EmAcc/EmDon on addition of calcium (2.5 mM)", "setting": "[3]", "value": 0.22},
      {"measurement": "increase in EmAcc/EmDon on addition of calcium", "setting": "[3]", "value": 66.7, "unit": "%"},
      {"measurement": "increase in EmAcc/EmDon on addition of calcium (2.5 mM), single assay", "setting": "[3]", "value": 64.4, "unit": "%"},
      {"measurement": "maximal calcium-dependent increase in EmAcc/EmDon (average)", "setting": "[3]", "value": 0.169}
    ]},
    {"substance": "cL-ABC-D1 Cys241Ser Ser151Cys labelled with AlexaFluor546 (from UniProt P20810 114-270) (domain or fragment)", "values": [
      {"measurement": "FRET efficiency", "setting": "[3]", "value": 32.7, "unit": "%"},
      {"measurement": "increase in EmAcc/EmDon on addition of calcium", "setting": "[3]", "value": 99.9, "unit": "%"},
      {"measurement": "maximal calcium-dependent increase in EmAcc/EmDon (average)", "setting": "[3]", "value": 0.45},
      {"measurement": "increase in EmAcc/EmDon on addition of calcium", "setting": "[1]", "value": 330, "unit": "%"}
    ]},
    {"substance": "cL-ABC-D1 Cys241Ser Ser148Cys labelled with TMR (from UniProt P20810 114-270) (domain or fragment)", "values": [
      {"measurement": "increase in EmAcc/EmDon on addition of calcium", "setting": "[1]", "value": 330, "unit": "%"}
    ]},
    {"substance": "cL-AtB-D1 Ser142Cys labelled with AlexaFluor546 (from UniProt P20810 114-202) (domain or fragment)", "values": [
      {"measurement": "increase in EmAcc/EmDon on addition of calcium", "setting": "[3]", "value": 66.7, "unit": "%"}
    ]},
    {"substance": "cL-ABC-D1 Cys241Ser Ser151Cys labelled with TMR (from UniProt P20810 114-270) (domain or fragment)", "values": [
      {"measurement": "increase in EmAcc/EmDon on addition of calcium", "setting": "[1]", "value": 330, "unit": "%"}
    ]},
    {"substance": "porcine erythrocyte calpain 1 (from UniProt P35750 1-714; P04574 1-266) (complex)", "values": [
      {"measurement": "inhibition of FRET at ~0.35 μM competitor", "setting": "[2]", "value": 50, "unit": "%"}
    ]}
  ]
}
